Substitutions are numbered along the chain they refer to.
B1: Clone J chimeric ROR1 antibody (antibody, V domains shown)
VH: DVKLVESGGGLLKPGGSLKLSCVASGFSFSKYWMHWVRQAPGQGLEWIAEIEYDGTETNYAPSIKDRFTISRDNAKNTLYLQMSNVRFEDAATYFCTTEEMHTTDYYYGFAYWGQGTLVTVSS
VL: DIVLTQSPALAVSVGQRATISCRASQSVSISRYDFMHWYQQKPGQQPKLLIYRASNLASGIPARFSGSGSGTDFTLTINPVQADDIATYYCQQNRESPRTFGGGTKLELK
notes: also called J6
B2: Clone E7 chimeric ROR1 antibody (antibody, V domains shown)
VH: GKLVESGGGLLKPGGSLKLSCVASGFTFDKYWMHWVRQAPGKGLEWIAEIEYDGTETNYAPSIKDRFTISRDNAKNTLYLQMSNVRSEDAATYFCTTEEMYTTDYYYGFAYWGQGTLVTVSS
VL: B1 VL with D34N
B3: Clone B chimeric ROR1 antibody (antibody, V domains shown)
VH: DVQLEESGGGLVRPGRSLKLSCADSGVNFSNRGMAWVRQAPTKGLEWVATISYDGRIIYYRDSVKGRFSISRENAKSTLYLQMDSLRSEDTATYYCARHPIAADWYFDFWGPGTMVTVSS
VL: DIRMTQSPASLSASLGETVTIECLTSEDIYSDLAWFQQKPGKSPQLLIYDANSLQNGVPSRFGGCGSGTQYSLQISSLQSEDVATYFCQQYKNYPPTFGGGTKLVLK
notes: also called B5
B4: 4a5 (previously published ROR1 antibody) (antibody, V domains shown)
VH: EVKLVESGGGLVKPGGSLKLSCAASGFTFSSYAMSWVRQIPEKRLEWVASISRGGTTYYPDSVKGRFTISRDNVRNILYLQMSSLRSEDTAMYYCGRYDYDGYYAMDYWGQGTSVTVSS
VL: DIKMTQSPSSMYASLGERVTITCKASPDINSYLSWFQQKPGKSPKTLIYRANRLVDGVPSRFSGGGSGQDYSLTINSLEYEDMGIYYCLQYDEFPYTFGGGTKLEMK
B5: R12 (previously published ROR1 antibody) (antibody, V domains shown)
VH: QEQLVESGGRLVTPGGSLTLSCKASGFDFSAYYMSWVRQAPGKGLEWIATIYPSSGKTYYATWVNGRFTISSDNAQNTVDLQMNSLTAADRATYFCARDSYADDGALFNIWGPGTLVTISS
VL: ELVLTQSPSVSAALGSPAKITCTLSSAHKTDTIDWYQQLQGEAPRYLMQVQSDGSYTKRPGVPDRFSGSSSGADRYLIIPSVQADDEADYYCGADYIGGYVFGGGTQLTVTG
B6: Clone Pi chimeric ROR1 antibody (antibody, V domains shown)
VH: EVQLVESGGGLVQPGRSLTLSCSASGFTFRDYNMAWVRQAPRKGLEWVATISFDDYNTYYRDSVKGRFTISRDDAKSTLYLQMDSLRSEDTATYYCARPGTYWGQGTLVTVSS
VL: DIQLTQSPSSLSASLGDRVSLTCQSSQGIGKYLSWFQHKPGKPPKPVINYATNLADGVPSRFSGRRSGSDFSLTISSLESEDTAIYYCLQFDDFRWTVGGGTKLELK
B7: Clone O chimeric ROR1 antibody (antibody, V domains shown)
VH: QVRLLQSGAALVKPGASVKMSCKASGYTFTDYWMSWVKQSHGKSLEWIGEIYPNSGATNFNEKFKDKATLTVDRSTSTAYMELSRLTSEDSAIYYCARGFPNNYLSWFAYWGQGTLVTVSS
VL: DIVLTQSPALAVSLEQRVTIACKTSQNVDNHGISYMHWYQQKSGQEPKLLIYEGSNLAVGIPARFSGSGSGTDFTLTIDPVEADDIETYYCQQSKDDPRTFGGGTKLELK
B8: Clone G3 chimeric ROR1 antibody (antibody, V domains shown)
VH: EVQLQESGPGLVKPAQSLSLTCSVTGYSITNMYRWNWIRKFPGNKLEWMGYINTAGSTDYSPSLRGRVSITGDTSKNQFFLHLTSVTTEDTATYYCAGFITNPFDFWGQGVMVTVSS
VL: DVVMTQTPVSLPVSLGGQVSISCRSSQSLEHSNGDTFLHWYLQKPGQSPRLLIYRVSNRFSGVPDRFSGSGSGTDFTLKISRIEPEDLGDYYCLQSTHFPNTFGAGTKLELK
B9: Clone G5 chimeric ROR1 antibody (antibody, V domains shown)
VH: EVQVVESGGGLVQPGRSLKLSCVPSGFTFNNYWMTWIRQAPGKAPEWVASISNTGGSTFYPDSVRGRFSISRDNTKGTLYLHMTSLRSEDTATYYCIRNMDAWGQGTSVTVSS
VL: DIQLTQSPSTLSASLGERVTISCRASQSISNSLNWYQQKPDGTVKRLIYSTSTLESGVPSRFSGSGSGTDFSLSISSLESEDFAMYYCLQFATYPQVTFGSGTKLEIK
B10: D10 (previously published ROR1 antibody, the prototype of Cirmtuzumab) (antibody, V domains shown)
VH: QVQLKESGPGLVAPSQTLSITCTVSGFSLTSYGVHWVRQPPGKGLEWLGVIWAGGFTNYNSALKSRLSISKDNSKSQVLLKMTSLQTDDTAMYYCARRGSSYSMDYWGQGTSVIVSS
VL: EIVLSQSPAITAASLGQKVTITCSASSNVSYIHWYQQRSGTSPRPWIYEISKLASGVPVRFSGSGSGTSYSLTISSMEAEDAAIYYCQQWNYPLITFGSGTKLEIQ
B11: Clone I chimeric ROR1 antibody (antibody, V domains shown)
VH: EVQLVESGGGSVQPGRSLKLSCAASGFTFSDYNMAWVRQAPKKGPEWVATITYDVHNAYYRDSVKGRFTISRDDAKSTLYLQMDSLRSEDTATYFCARPGAYWGQGTLVTVSS
VL: DIQLTQSPSSMSASLGDRVSLTCQSSQGIGKYLSWYQHKPGKPPKAMIYYATKLADGVPSRFSGSRSGSDFSLTISSLESEDIAIYYCLQFDDYPWTFGGGTKLELK

Legend:
[1] = target: T1, Histidine-tagged ROR1 protein (extracellular region) (UniProt Q01973 30-406); experiment: SPR, Biacore X100; antibody captured by anti-human IgG1 on CM5 chip, His-tagged ROR1 extracellular portion injected at 1.5-100 nM
T1 construct: extracellular domain; also called extracellular portion of ROR1 bearing a Histidine tag; not shown: Histidine tag
Method: FIG. 3: KD determination by surface plasmon resonance. Sensorgrams obtained using a Biacore X100 instrument are shown. Briefly, ROR1 antibodies were immobilized using a CM5 chip and seven different concentrations of the Histidine-tagged ROR1 protein (extracellular region) were injected. Concentrations ranged from […].
We undertook surface plasmon resonance evaluation using a Biacore X100 instrument. ROR1 chimeric antibodies were immobilised using an anti-human IgG1 antibody capture kit and a CM5 sensor chip. Seven different concentrations, ranging from 1.5-100 nM, of the extracellular portion of ROR1 bearing a Histidine tag were then injected.

Fz+Kg = target: T2, Fz+Kg (human, UniProt Q01973); experiment: flow cytometry, transduced SUP-T1 cells, anti-human Fc-Dylight647
T2 construct: also called ROR1 Frizzled+Kringle domains, on transduced SUP-T1 cells
Method: (§1) FIG. 1A-FIG. 1C: Identification of ROR1 binding domain: FIG. 1A: SUP-T1 cells were transduced with retroviral vectors containing either the full extracellular portion of ROR1 or only one or two extracellular domains. Non-transduced SUP-T1 (SUP-T1 NT) cells served as negative control. FIG. 1B: All 12 chimeric antibodies and FIG. 1C all 10 positive clones in scFv format were incubated with SUP-T1 NT and the new stable cell lines at 4° C. for 30 min. Cells were washed and stained with a secondary antibody (anti-human Fc-Dylight647), which was used as negative control. eROR1=extracellular ROR1, Ig-like=Immunoglobulin-like domain, Fz=Frizzled domain, Kg=Kringle domain.

[2] = target: T3, ROR1 Frizzled domain alone, on transduced SUP-T1 cells (human, UniProt Q01973 165-299); experiment: as above
T3 construct: domain: Fz; also called Fz; ROR1-Fz domain
Method: as §1

Kringle (Kg) = target: T4, Kringle (Kg) (human, UniProt Q01973); experiment: as above
T4 construct: also called ROR1 Kringle domain alone, on transduced SUP-T1 cells
Method: as §1

[3] = target: T5, ROR1, full extracellular region, on transduced SUP-T1 cells (UniProt Q01973 30-406); experiment: flow cytometry, ROR1-transduced cells, single staining; Q1 = ahFc+ only; amFc+ahFc alone Q1 0.060 (FIG. 7A)
T5 construct: extracellular domain; also called eROR1; extracellular ROR1

[4] = target: T5, ROR1, full extracellular region, on …; experiment: flow cytometry, ROR1-transduced cells, single staining; Q1 = ahFc+ only; amFc+ahFc alone Q1 0.060
Excerpt: FIG. 7A-FIG. 7C: Competition assay by flow cytometry. Clone A (SA1) in murine IgG2a, k (mSA1) along with other ROR1 MAbs in human IgG1, k-including previously published 4a5, D10 and R12 clones—were used for staining ROR1-transduced cells. MAb staining was done as FIG. 7A-FIG. 7B: single agents or FIG. 7C: in combination with clone A (mSA1). Anti-human IgG (450) and anti-mouse IgG (DyLight649) were used as secondary antibodies. Combined staining using clones F and mSA1 acted as negative control for overlapping epitopes.
In FIG. 7C, three different columns are presented. Dot plots on the first column correspond to ROR1 binding assessed when SUP-T1 ROR1 cells were stained with clone A (SA1) (mIgG) in the first instance. After a washing step, cells were stained with a competitor antibody (hIgG), followed by another washing step. Both antibodies were then detected by a third staining step using the appropriate secondary antibodies. In the second column, a similar approach was taken when staining these cells, except that this time it was the antibody in hIgG1, k format the one used for the first staining step, followed by clone A (SA1) staining. On the third column, both antibodies were used at the same time.

T3 sequence (Q01973 165-299): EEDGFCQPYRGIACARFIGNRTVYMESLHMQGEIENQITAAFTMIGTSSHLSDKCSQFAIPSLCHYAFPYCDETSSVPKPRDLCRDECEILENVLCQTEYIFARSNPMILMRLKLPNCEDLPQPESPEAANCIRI
T2 sequence (Q01973 165-391 limits assumed): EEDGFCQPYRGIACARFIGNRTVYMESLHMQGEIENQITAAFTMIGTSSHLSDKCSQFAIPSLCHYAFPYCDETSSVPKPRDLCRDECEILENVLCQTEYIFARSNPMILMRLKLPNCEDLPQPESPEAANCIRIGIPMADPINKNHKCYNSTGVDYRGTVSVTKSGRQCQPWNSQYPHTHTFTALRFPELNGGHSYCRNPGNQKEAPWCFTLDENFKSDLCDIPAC
T5 sequence (Q01973 30-406): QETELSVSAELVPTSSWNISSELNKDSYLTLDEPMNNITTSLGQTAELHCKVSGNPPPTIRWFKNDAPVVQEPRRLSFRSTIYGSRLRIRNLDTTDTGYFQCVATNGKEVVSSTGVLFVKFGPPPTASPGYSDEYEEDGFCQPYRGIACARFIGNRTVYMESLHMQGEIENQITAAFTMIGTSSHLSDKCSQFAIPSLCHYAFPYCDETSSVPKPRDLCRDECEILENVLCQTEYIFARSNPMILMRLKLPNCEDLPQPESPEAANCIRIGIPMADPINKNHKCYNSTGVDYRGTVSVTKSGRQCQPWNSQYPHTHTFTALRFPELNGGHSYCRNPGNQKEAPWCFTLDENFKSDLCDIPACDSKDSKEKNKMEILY
T1 sequence (Q01973 30-406): as above
T4 sequence (Q01973 312-391 limits assumed): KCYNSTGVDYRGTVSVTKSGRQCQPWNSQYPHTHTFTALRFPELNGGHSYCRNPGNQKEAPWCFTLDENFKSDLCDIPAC

Binder	Kd [1] [nM]	koff [1] [s⁻¹]	kon [1] [M⁻¹ s⁻¹]	binding result (Fz+Kg)	binding result [2]	binding result (Kringle (Kg))	Q1 quadrant figure [3]	Q1 quadrant figure [4]
B1	3.35	0.000835	249000	no binding	no binding	no binding	–	–
B2	2.04	0.000849	417000	no binding	no binding	no binding	–	–
B3	1.5	0.000698	464000	no binding	no binding	no binding	–	–
B4	–	–	–	–	–	–	96.9	–
B5	–	–	–	–	–	–	96.9	–
B6	1.98	0.000349	176000	no binding	no binding	no binding	–	–
B7	3.5	0.000607	174000	no binding	no binding	no binding	–	–
B8	2.45	0.000266	109000	no binding	no binding	no binding	–	96.1
B9	2.61	0.000416	159000	no binding	no binding	no binding	–	96.7
B10	–	–	–	–	–	–	84.3	–
B11	2.44	0.00051	209000	no binding	no binding	no binding	–	–
